From the DeepSol protein solubility set

Assay: soluble on expression in E. coli; label from the status in PepcDB or PDB records

Row | Sequence | soluble on expression in E. coli
1 | MNSSRPYLVRALYEWIVDNDCTPHILVNAEFAGVKVPPGYASDGQIVLNVSPSAVRHLHMDNEAVSFEGRFGGVAQSLYIPALAVMAIYARENGQGMVFDLEQPGPVDDEPGDDDGGPSDEPPRPSGRPSLKVVK | not soluble
2 | DAGGGVGKELVDLKIIWNKTKHDVKVPLDSTGSELKQKIHSITGLPPAMQKVMYKGLVPEDKTLREIKVTSGAKIMVVGSTI | soluble
3 | PDVDGMITLKVDNLTYRTSPDSLRRVFEKYGRVGDVYIPREPHTKAPRGFAFVRFHDRRDAQDAEAAMDGAELDGRELRVQVARYGRRDL | soluble
4 | RRRFDEKRREMLMGKLEEINQKRIAEALESEKKSLEKVSRSDQLRIDLITNVSHDLKTPLTSMVGYIELIKKEELSDLVRDYVDVLSERAEKLKEMINSLFSLAKASSGNIELHPEKFELNRLVEQIFADMHDHVKESELQFVKQFTEENTEIISDNMYFYRICQNLIENALKYSAKHTRVFVKTYQKESSNHLCLEITNTAGYPMDFTKEEIIERFFRGDKQRSSEGNGLGLAIVSTYVKALGGEFDIKIDCDQFKACVEMPLSAITIT | not soluble
5 | MSLAVTLKDVAEACGVSYSTVSKALKNSQLVKPNTKQMIQQKALEMNYIPNHSARALVSKKSGTIGLIWPSVDRVAVTHLITEINLAIKSLGYVMFVSIDDVAAASKKFVEFGCDGIIIFDEDETTNLPPEIYNNVPVVAYGVDRDIPYPIVNVNHAEAMIIAIKELLAKGIDRIDYIGDIHTNDARQIAKKDAIANYCEQHHIQYRMIDSSGLNAIEAETSVKHFLQESSLAPGVICGSYDITVGTINAMGSDEQPIIYSYDNIPQIKKIDYPVQAIGVPTAEIAQQVVAILDKVIKGEPIENTYHLHPSLSHNQEGHHHHHH | soluble
6 | SLIENSHVKKDDIWPSGGQMTVKDLTAKYTEGGNAILENISFSISPGQRVGLLGRTGSGKSTLLSAFLRLLNTEGEIQIDGVSWDSITLEQWRKAFGVIPQKVFIFSGTFRKNLDPYEQWSDQEIWKVADEVGLRSVIEQFPGKLDFVLVDGGCVLSHGHKQLMCLARSVLSKAKILLLDEPSAHLDPVTYQIIRRTLKQAFADCTVILCEARIEAMLECDQFLVIEENKVRQYDSILRLYHYPADRFVAGFIGSPKMNFLPVKVTATAIDQVQVELPMPNRQQVWLPVESRDVQVGANMSLGIRPEHLLPSDIADVILEGEVQVVEQLGNETQIHIQIPSIRQNLVYRQNDVVLVEEGATFAIGLPPERCHLFREDGTACRRLHKEPGV | not soluble
7 | MKKVQTPLFQGITENEWNEMQNCSCMRQQSFEKNELIFRMGESVREIGIVLTGSVNIENVDLWGNKSLLSNISAGQVFAETYAFCQEPLMVNAVAAEYTNLLFLNLETLMQPRYKDTLWTDKIMQNLLRISIYKNLILSNRIFCTTPKTIRGRLLIYLSSQASKAESTVFQISFNRQELADYLNLDRSALSKELGKMRDEGILEFRKNQFVLHQLPE | not soluble
8 | RGRGAAAWRILRCRRLPEPSPFLTQPNLAQSQPPAPVPVTDPSVTMHPAVFLSLPDLRCSLLLLVTWVFTPVTTEITSLDTENIDEILNNADVALVNFYADWCRFSQMLHPIFEEASDVIKEEFPNENQVVFARVDCDQHSDIAQRYRISKYPTLKLFRNGMMMKREYRGQRSVKALADYIRQQKSDPIQEIRDLAEITTLDRSKRNIIGYFEQKDSDNYRVFERVANILHDDCAFLSAFGDVSKPERYSGDNIIYKPPGHSAPDMVYLGAMTNFDVTYNWIQDKCVPLVREITFENGEELTEEGLPFLILFHMKEDTESLEIFQNEVARQLISEKGTINFLHADCDKFRHPLLHIQKTPADCPVIAIDSFRHMYVFGDFKDVLIPGKLKQFVFDLHSGKLHREFHHGPDPTDTAPGEQAQDVASSPPESSFQKLAPSEYRYTLLRDRDEL | soluble
9 | MAHHHHHHMDTRGLRHLKSYLGKEGEQLARAKRASDVVPVLAARQAAAAAAARATAADVTTVSNTVPAPLSPSVMKYLGGRLASGATHKLSRTQMALAAALAAPGAPSTRGHAEGSENGETALAVTRAKVADMAAAVDTLAVSALELAARRAAEDTEARRSTAESSSLFVLVDTSSEAAEVAGQLEGRYGLTVLLLRDDNACRHPTFPSPASRAGVSTLRGTTSKTPAAERRKTKSNSRTVDEVAPKDEATESTPALAGAVVVVVATPAAFLAVDRRSAIWKFIGSCALLLRRAPTHTGSLLHTLKGIKAAASSSPTKTTPHALNAQRWACIGHVPAIAVLAAEQKWLTEPELDLLTTLRVERHVGSGVGVVSKSTEASVSSAVAALRAPVTVHYAVAQGTHRFQFLFGLLKGLAPHRGIVVHVATRECVAFLYDTLYSLVGELPSHVQLLSDYEGASAYTNMHTTADRQRLCVAFDSTVESGQNGKTAAVLLSCHGLVPRRGSVFLQYDVIPDLLNYNQFIAEVLSPGAVAADAGNDAGGTAPSAAAEVAVRRERMARRRKRSTSPTPAPVAARRVGADAANSAADASSGSKAAIPAAVNYTHILLLFRPNEVAGALRHLRRDGASRYRLEFRELGPRAGGRYFLIGEKLKSMNKKLFPVQNAAYDAYKATMRTYSTIGPRDVYDETKVSLEKVAEEFGYTELPLLDLRLKDTVFRPKEDYYRAARQKQDAERRAYKAFVQGNIVGESPEEHVADSVA | soluble
10 | MGSDKIHHHHHHMKIAQIAPLAERVPPKLYGGTERIVHCLTEELVRLGHDVTLFASGDSLTSAELVPCCDVALRLNPRVQDFLPHHIAMLEEVRRRAPQFDVLHFHIEFLHFPLIRDFADRTVTTLHTRLDLPDLQPFYLAFPDIPLVSISQHQRVPMPPVNWRGTVLHGLDPTVLPLREGRSDEYLAFLGRIAPEKGPDRAIEIAARSGMPLKIAAKIDAQDRAYWEAVVEPLIASHSNVEYIGEIDEGQKADFLGNAAALLFPINWPEPFGLVMIEAMACGTPVLAFRYGSAPEVIDDGVSGILVDTVEQAVESLGRVLELDRRKVRESFETRFTTERMTRDYLDIYQNLPGVLRQTASTPQGEAKKVGLEAA | not soluble
11 | MGSDKIHHHHHHMVAMQSYPYVITVSSEKGGVGKTTLATNLAIYLKALDENLPVSIFSFDNHFTVDRMFEIRGQRTTGTVADLLLETPGRDLIHTGQYGVGYIPSSPNLSDLKGTVKTPMMLARLLALSRIPGVVVIDTRPDLDILTQNALFAADRAIIPVKDMPSLENCRNIFALFEQRGLDRKSLSLIPCLVDERIKFDGPFSDQKTLLKAYAINRGYRCFETYISKSPKVESLNTNPDGKIYPILTHAKWTEVHGQFAQLAQTIITEFRATAEPRAFLFHQWLQSEEVRKKEAFFARLSGIKSECLLCGRPVSGKDSDRVSFYFEVSDGSAAGFFEEECFFRLLMTNVYNLDINLADDDPTLQIMRDAARESAFVFRPVTNGSGTTVDFHRFGLDGVHLLKKAYPLREFEGGMLTREKSRLFSLLSETFGNRLDASPDSFLLVHPVHQEKPEAILQEECYRGFARLRQRIAQQVLPPN | not soluble
12 | MGSDKIHHHHHHMIIDAHTHVWPEKIAAKALAGRVPGMEAKFDGTVAGLKRSMDAAGIDHCVAFGIADHARHVERANEFISSQRSDWLTPFGTIHLDLSVEENMEILQRHGIKGVKLHPLFQRFRLDDRRLWALFDAFGSDIAVITHVGFGGQGSANENSTPQMIVDIARNFPKLRFMACHFGGFRRLDEAEKYVVGLPIVLETSWPPGLAEIPTERLRAIVHRHGPDRIIFGSDWPMVDPADEIEAIRRLELHPDDEAAILGGNLARILGMES | not soluble
13 | MGSDKIHHHHHHMTGIPTHKAVQQSDFGIFAKEVSPFSPNRTINYVHRDDYYILGVVKSGTCHVSIDFKEYVFSAGDVVCTQPNQVHHIIDTGNADVLLLFIDGVFIDTPTKQIIAEYVLSPVPFKINDIQYTDLGQLFSMILRRMNGGNPDCKSKAVIQNLSCAIVGIITDNIQKYIGQNHKNRRHIEITLALKALFSEEKQLNRSVSYYAEALHISPVYLNEVVKNVTGESVSKYIQNELILRAKRMLVYTSLNVREISIDLGIEDYAYFTRLFTKAVGVNPTSYRKKYLE | not soluble
14 | MYKIVTVKDVVRIPPRMFTMDPKEAAMLVLRDTYEGTYDRDEGVILSIVEVKEVGDGIIVPGDGATYHEVVFDVLVWEPKRDEVVEGTVVDVVPFGAFIRIGPMDGLVHISQLMDDYVVYDERNKQFVGKEKKYLLKIGDAVRARIITVSPKSRVIRENRIGLTMRQPGLGKFEWIEKEKRKEKEGKK | soluble
